Test results published in article PMC6555819, “Comprehensive study of nuclear receptor DNA binding provides a revised framework for understanding receptor specificity”.

Target: LXRb:RXRa (Homo sapiens, UniProt P55055;P19793 full;full)
Assay: no ligand; PBM; 270 nM : 90 nM RXRa; PBS pH 7.4, 2% milk, 0.02% Triton X-100, 1 mM DTT, BSA, 0.4 mg/ml salmon testes DNA
Settings: tags: His kept;His cleaved; copies: 1;1; label: surface-attached array probe
Procedure, shortened: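 Regression normalization was applied to scanned fluorescence from custom Agilent 4×180K protein-binding microarrays. Before scanning, arrays were incubated 1 h with ligand-free nuclear receptor dimers, and binding was detected with antibodies against each partner (one per run). Binding z-scores use the random background probes as reference.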

LXRb:RXRa, sequence (P55055 whole entry, chain 1 of 2): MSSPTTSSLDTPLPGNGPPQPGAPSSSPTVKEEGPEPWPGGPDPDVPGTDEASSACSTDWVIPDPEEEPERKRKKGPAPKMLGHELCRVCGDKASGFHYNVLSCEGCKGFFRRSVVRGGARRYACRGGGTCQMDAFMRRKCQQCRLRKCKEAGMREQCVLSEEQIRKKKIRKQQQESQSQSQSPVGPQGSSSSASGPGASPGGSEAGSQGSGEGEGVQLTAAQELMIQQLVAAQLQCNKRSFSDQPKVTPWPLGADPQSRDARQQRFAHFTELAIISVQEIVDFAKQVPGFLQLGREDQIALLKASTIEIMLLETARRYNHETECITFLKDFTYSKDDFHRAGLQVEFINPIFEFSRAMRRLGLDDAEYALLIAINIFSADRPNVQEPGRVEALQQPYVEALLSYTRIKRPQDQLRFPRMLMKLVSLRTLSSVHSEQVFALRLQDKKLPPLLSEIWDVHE
LXRb:RXRa, sequence (P19793 whole entry, chain 2 of 2): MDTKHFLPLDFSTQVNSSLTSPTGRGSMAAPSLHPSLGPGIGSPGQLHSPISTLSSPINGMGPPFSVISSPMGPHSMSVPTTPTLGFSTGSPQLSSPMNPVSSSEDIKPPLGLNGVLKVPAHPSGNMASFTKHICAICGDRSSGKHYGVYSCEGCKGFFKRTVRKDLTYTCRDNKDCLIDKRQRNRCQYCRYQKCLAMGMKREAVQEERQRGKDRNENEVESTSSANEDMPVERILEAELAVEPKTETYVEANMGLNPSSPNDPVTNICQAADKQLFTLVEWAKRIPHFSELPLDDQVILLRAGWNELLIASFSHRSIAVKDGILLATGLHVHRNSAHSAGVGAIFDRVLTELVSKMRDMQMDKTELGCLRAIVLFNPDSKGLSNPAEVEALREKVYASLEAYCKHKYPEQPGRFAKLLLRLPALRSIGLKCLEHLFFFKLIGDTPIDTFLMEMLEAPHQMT

Binder	binding signal
NRC3_wobSeed93_DR3_T17A_o1 (dsDNA) DNA 1: GCAGTCAAAGTTCATCAAGGTAACGTAAGATATGCTGCGATTGACAGCGTAGAATGAAGG DNA 2: CCTTCATTCTACGCTGTCAATCGCAGCATATCTTACGTTACCTTGATGAACTTTGACTGC	3.53 PBM z-score against 500 random probes
NRC3_wobSeed124_DR5_C17A_o1 (dsDNA) DNA 1: GCCCTACTGGGCCATTAAGAGGTCATTGATCATATGGCGATTGACAGCGTAGAATGAAGG DNA 2: CCTTCATTCTACGCTGTCAATCGCCATATGATCAATGACCTCTTAATGGCCCAGTAGGGC	3.9 PBM z-score against 500 random probes
NRC3_wobSeed124_DR5_T15C_o1 (dsDNA) DNA 1: GCCCTACTGGGCCACTCAGAGGTCATTGATCATATGGCGATTGACAGCGTAGAATGAAGG DNA 2: CCTTCATTCTACGCTGTCAATCGCCATATGATCAATGACCTCTGAGTGGCCCAGTAGGGC	3.89 PBM z-score against 500 random probes
NRC3_wobSeed124_DR5_T27C_o1 (dsDNA) DNA 1: GCCCTACTGGGCCATTCAGAGGTCATCGATCATATGGCGATTGACAGCGTAGAATGAAGG DNA 2: CCTTCATTCTACGCTGTCAATCGCCATATGATCGATGACCTCTGAATGGCCCAGTAGGGC	3.78 PBM z-score against 500 random probes
NRC3_wobSeed124_DR5_T26C_o1 (dsDNA) DNA 1: GCCCTACTGGGCCATTCAGAGGTCACTGATCATATGGCGATTGACAGCGTAGAATGAAGG DNA 2: CCTTCATTCTACGCTGTCAATCGCCATATGATCAGTGACCTCTGAATGGCCCAGTAGGGC	3.39 PBM z-score against 500 random probes
NRC3_wobSeed58_DR2_C5G_o1 (dsDNA) DNA 1: GCATGGAAAGGTCGTGAGGTGAGTATACAGAAAGGCGCGATTGACAGCGTAGAATGAAGG DNA 2: CCTTCATTCTACGCTGTCAATCGCGCCTTTCTGTATACTCACCTCACGACCTTTCCATGC	3.62 PBM z-score against 500 random probes
NRC3_wobSeed58_DR2_A25T_o1 (dsDNA) DNA 1: GCATCGAAAGGTCGTGAGGTGAGTTTACAGAAAGGCGCGATTGACAGCGTAGAATGAAGG DNA 2: CCTTCATTCTACGCTGTCAATCGCGCCTTTCTGTAAACTCACCTCACGACCTTTCGATGC	3.5 PBM z-score against 500 random probes
NRC3_wobSeed65_DR2_G27T_o1 (dsDNA) DNA 1: GCATATGTAGGTTATCGGGTCATTCATTTTGCGCATGCGATTGACAGCGTAGAATGAAGG DNA 2: CCTTCATTCTACGCTGTCAATCGCATGCGCAAAATGAATGACCCGATAACCTACATATGC	3.32 PBM z-score against 500 random probes
NRC3_wobSeed65_DR2_T15C_o1 (dsDNA) DNA 1: GCATATGTAGGTTACCGGGTCATTCAGTTTGCGCATGCGATTGACAGCGTAGAATGAAGG DNA 2: CCTTCATTCTACGCTGTCAATCGCATGCGCAAACTGAATGACCCGGTAACCTACATATGC	3.17 PBM z-score against 500 random probes
NRC3_wobSeed2_DR0_C4A_o1 (dsDNA) DNA 1: GCCATAGTTGGTCAAGGTCACACACGCTATAGGTACGCGATTGACAGCGTAGAATGAAGG DNA 2: CCTTCATTCTACGCTGTCAATCGCGTACCTATAGCGTGTGTGACCTTGACCAACTATGGC	3.81 PBM z-score against 500 random probes
NRC3_wobSeed2_DR0_A22G_o1 (dsDNA) DNA 1: GCCCTAGTTGGTCAAGGTCACGCACGCTATAGGTACGCGATTGACAGCGTAGAATGAAGG DNA 2: CCTTCATTCTACGCTGTCAATCGCGTACCTATAGCGTGCGTGACCTTGACCAACTAGGGC	3.68 PBM z-score against 500 random probes
NRC3_wobSeed98_DR4_C29A_o1 (dsDNA) DNA 1: GCACTAGTTGGTCAGCTGAGGTCACACAAAATTCGGGCGATTGACAGCGTAGAATGAAGG DNA 2: CCTTCATTCTACGCTGTCAATCGCCCGAATTTTGTGTGACCTCAGCTGACCAACTAGTGC	3.75 PBM z-score against 500 random probes
NRC3_wobSeed98_DR4_A19G_o1 (dsDNA) DNA 1: GCACTAGTTGGTCAGCTGGGGTCACACACAATTCGGGCGATTGACAGCGTAGAATGAAGG DNA 2: CCTTCATTCTACGCTGTCAATCGCCCGAATTGTGTGTGACCCCAGCTGACCAACTAGTGC	3.54 PBM z-score against 500 random probes
NRC3_wobSeed130_DR5_C17G_o1 (dsDNA) DNA 1: GCCTCGAAAGGTCGTGGTCAGGTGAGTATACCAAACGCGATTGACAGCGTAGAATGAAGG DNA 2: CCTTCATTCTACGCTGTCAATCGCGTTTGGTATACTCACCTGACCACGACCTTTCGAGGC	3.33 PBM z-score against 500 random probes
NRC3_wobSeed21_DR0_A15T_o1 (dsDNA) DNA 1: GCCGTCAAAGTTCATGGTAACGTAACAGAAAGCAGCGCGATTGACAGCGTAGAATGAAGG DNA 2: CCTTCATTCTACGCTGTCAATCGCGCTGCTTTCTGTTACGTTACCATGAACTTTGACGGC	3.49 PBM z-score against 500 random probes
NRC3_wobSeed18_DR0_o1 (dsDNA) DNA 1: GCGATACAGGGTCAAGGCCAGAGTACGCGTATTGATGCGATTGACAGCGTAGAATGAAGG DNA 2: CCTTCATTCTACGCTGTCAATCGCATCAATACGCGTACTCTGGCCTTGACCCTGTATCGC	3.7 PBM z-score against 500 random probes
NRC3_wobSeed69_DR2_A21T_o1 (dsDNA) DNA 1: GCAGTCAAAGTTCACTAGGTTACGTAAGATTCAGCTGCGATTGACAGCGTAGAATGAAGG DNA 2: CCTTCATTCTACGCTGTCAATCGCAGCTGAATCTTACGTAACCTAGTGAACTTTGACTGC	3.64 PBM z-score against 500 random probes

Binder	binding signal
NRC3_wobSeed116_DR4_G26T_o1 (dsDNA) DNA 1: GCAGAATGAGGTTACCAAAGATCAGTGAAACGCTTGGCGATTGACAGCGTAGAATGAAGG DNA 2: CCTTCATTCTACGCTGTCAATCGCCAAGCGTTTCACTGATCTTTGGTAACCTCATTCTGC	3.35 PBM z-score against 500 random probes
NRC3_wobSeed116_DR4_A6G_o1 (dsDNA) DNA 1: GCAGAGTGAGGTTACCAAAGATCAGGGAAACGCTTGGCGATTGACAGCGTAGAATGAAGG DNA 2: CCTTCATTCTACGCTGTCAATCGCCAAGCGTTTCCCTGATCTTTGGTAACCTCACTCTGC	3.28 PBM z-score against 500 random probes
NRC3_wobSeed92_DR3_A9G_o1 (dsDNA) DNA 1: GCAGAATGGGGTTATTAAGATCAGGGAATTGCGGTCGCGATTGACAGCGTAGAATGAAGG DNA 2: CCTTCATTCTACGCTGTCAATCGCGACCGCAATTCCCTGATCTTAATAACCCCATTCTGC	3.86 PBM z-score against 500 random probes
NRC3_wobSeed76_DR3_C13A_o1 (dsDNA) DNA 1: GCCCTACTGGGCAAAAAAGGTCATTGATGCCGATAAGCGATTGACAGCGTAGAATGAAGG DNA 2: CCTTCATTCTACGCTGTCAATCGCTTATCGGCATCAATGACCTTTTTTGCCCAGTAGGGC	3.73 PBM z-score against 500 random probes
NRC3_wobSeed74_DR3_G7C_o1 (dsDNA) DNA 1: GCTCTACTTGGTCACGGAGGTCACACACGACGGGTAGCGATTGACAGCGTAGAATGAAGG DNA 2: CCTTCATTCTACGCTGTCAATCGCTACCCGTCGTGTGTGACCTCCGTGACCAAGTAGAGC	3.61 PBM z-score against 500 random probes
NRC3_wobSeed74_DR3_G10C_o1 (dsDNA) DNA 1: GCTCTAGTTCGTCACGGAGGTCACACACGACGGGTAGCGATTGACAGCGTAGAATGAAGG DNA 2: CCTTCATTCTACGCTGTCAATCGCTACCCGTCGTGTGTGACCTCCGTGACGAACTAGAGC	3.52 PBM z-score against 500 random probes
NRC3_wobSeed1_DR0_T12C_o1 (dsDNA) DNA 1: GCCAAACTAGGCCAAGGTCAAAGTCGGTTTGTGCCAGCGATTGACAGCGTAGAATGAAGG DNA 2: CCTTCATTCTACGCTGTCAATCGCTGGCACAAACCGACTTTGACCTTGGCCTAGTTTGGC	3.41 PBM z-score against 500 random probes
NRC3_wobSeed27_DR1_A9G_o1 (dsDNA) DNA 1: GCACTCGGGGGACAAAGGTCAGAGCTACGCCAGTGAGCGATTGACAGCGTAGAATGAAGG DNA 2: CCTTCATTCTACGCTGTCAATCGCTCACTGGCGTAGCTCTGACCTTTGTCCCCCGAGTGC	5.84 PBM z-score against 500 random probes
NRC3_wobSeed27_DR1_C4G_o1 (dsDNA) DNA 1: GCAGTCGGAGGACAAAGGTCAGAGCTACGCCAGTGAGCGATTGACAGCGTAGAATGAAGG DNA 2: CCTTCATTCTACGCTGTCAATCGCTCACTGGCGTAGCTCTGACCTTTGTCCTCCGACTGC	3.47 PBM z-score against 500 random probes
NRC3_wobSeed50_DR2_T9G_o1 (dsDNA) DNA 1: GCCCTAGTGGGTCAGGAGGTCACACACCGGATATGAGCGATTGACAGCGTAGAATGAAGG DNA 2: CCTTCATTCTACGCTGTCAATCGCTCATATCCGGTGTGTGACCTCCTGACCCACTAGGGC	3.76 PBM z-score against 500 random probes
NRC3_wobSeed50_DR2_T8A_o1 (dsDNA) DNA 1: GCCCTAGATGGTCAGGAGGTCACACACCGGATATGAGCGATTGACAGCGTAGAATGAAGG DNA 2: CCTTCATTCTACGCTGTCAATCGCTCATATCCGGTGTGTGACCTCCTGACCATCTAGGGC	3.37 PBM z-score against 500 random probes
NRC3_wobSeed50_DR2_C4T_o1 (dsDNA) DNA 1: GCCTTAGTTGGTCAGGAGGTCACACACCGGATATGAGCGATTGACAGCGTAGAATGAAGG DNA 2: CCTTCATTCTACGCTGTCAATCGCTCATATCCGGTGTGTGACCTCCTGACCAACTAAGGC	3.43 PBM z-score against 500 random probes
NRC3_wobSeed4_DR0_A14G_o1 (dsDNA) DNA 1: GCCCTACTGGGCCGAGGTCATTGATCAGTCAAAGCAGCGATTGACAGCGTAGAATGAAGG DNA 2: CCTTCATTCTACGCTGTCAATCGCTGCTTTGACTGATCAATGACCTCGGCCCAGTAGGGC	3.45 PBM z-score against 500 random probes
NRC3_wobSeed4_DR0_T25C_o1 (dsDNA) DNA 1: GCCCTACTGGGCCAAGGTCATTGACCAGTCAAAGCAGCGATTGACAGCGTAGAATGAAGG DNA 2: CCTTCATTCTACGCTGTCAATCGCTGCTTTGACTGGTCAATGACCTTGGCCCAGTAGGGC	3.2 PBM z-score against 500 random probes
NRC3_wobSeed125_DR5_G17T_o1 (dsDNA) DNA 1: GCCCTTACGGGTCACTTACAGGTTATAGCATTTGGAGCGATTGACAGCGTAGAATGAAGG DNA 2: CCTTCATTCTACGCTGTCAATCGCTCCAAATGCTATAACCTGTAAGTGACCCGTAAGGGC	3.58 PBM z-score against 500 random probes
NRC3_wobSeed125_DR5_G22C_o1 (dsDNA) DNA 1: GCCCTTACGGGTCACTGACAGCTTATAGCATTTGGAGCGATTGACAGCGTAGAATGAAGG DNA 2: CCTTCATTCTACGCTGTCAATCGCTCCAAATGCTATAAGCTGTCAGTGACCCGTAAGGGC	3.19 PBM z-score against 500 random probes
